Measured values published in a protein production outcome set (Wang et al. 2014).

Assay: label from the status in PepcDB records

MSLTASYETIKARLDGTVLSATFNAPPMNLIGPEVVRDLVALLEELAHPTAPRVVIFDSADADFFFPHVDMTKVPEYTAEAAKAGGPGDASLGMLFRKLSQLPAVTIAKLRGRARGAGSEFLLACDMRFASRENAILGQPEVGIGAPPGAGAIQHLTRLLGRGRALEAVLTSSDFDADLAERYGWVNRAVPDAELDEFVAGIAARMSGFPRDALIAAKSAINAISLPAPAEVRADAALFQQLVRGEKVQQRTAELFKQGFQTRGATELDLGDALGHLKAVDEGHHHHHH
protein production: not failed

MKAGYETMTPEELRRLTATHDEADYEIVDVREPAEYRQGHLPGAKHIPVGEVEARLDELVPGRTHIFYCRSGARSRAALTFAVESGLTLGPLYDLAGGILAWDGHTVPDEPRLATFAHVSDMRSLLLRAIDMEKAVHGLYTRVRAASGRPVVCELMDRLVGVEVAHARVIYRELRKWWAAADGELPPFETLFETLEGRVLEGGRSVDELEPWIRSASTGDCHEVADLALELEFAAYDLYRTLADEAVQGSGLGEDAARVFLDLASQEKAHARMIVAAMARFGEEGADATA
protein production: failed

MIQTKDIIELTDTYGANNYHPLPIVISKAEGVWVEDPEGNRYMDLLSAYSAVNQGHRHPKIINALIDQANRVTLTSRAFHSDQLGPWYEKVAKLTNKEMVLPMNTGAEAVETAIKTARRWAYDVKKVEANRAEIIVCEDNFHGRTMGAVSMSSNEEYKRGFGPMLPGIIVIPYGDLEALKAAITPNTAAFILEPIQGEAGINIPPAGFLKEALEVCKKENVLFVADEIQTGLGRTGKVFACDWDNVTPDMYILGKALGGGVFPISCAAANRDILGVFEPGSHGSTFGGNPLACAVSIAALEVLEEEKLTERSLQLGEKLVGQLKEIDNPMITEVRGKGLFIGIELNEPARPYCEQLKAAGLLCKETHENVIRIAPPLVISEEDLEWAFQKIKAVLS
protein production: not failed

MKKSINEQKTIFIILLSNIFVAFLGIGLIIPVMPSFMKIMHLSGSTMGYLVAAFAISQLITSPFAGRWVDRFGRKKMIILGLLIFSLSELIFGLGTHVSIFYFSRILGGVSAAFIMPAVTAYVADITTLKERSKAMGYVSAAISTGFIIGPGAGGFIAGFGIRMPFFFASAIALIAAVTSVFILKESLSIEERHQLSSHTKESNFIKDLKRSIHPVYFIAFIIVFVMAFGLSAYETVFSLFSDHKFGFTPKDIAAIITISSIVAVVIQVLLFGKLVNKLGEKRMIQLCLITGAILAFVSTVMSGFLTVLLVTCFIFLAFDLLRPALTAHLSNMAGNQQGFVAGMNSTYTSLGNIFGPALGGILFDLNIHYPFLFAGFVMIVGLGLTMVWKEKKNDAAALN
protein production: failed

MQSVWFYMGKSFKIHCLTYIIFILQWLIFLSCKKHYKGEKVDRKAGVILFWHGKLALMPFAFRHYRQKNKKAYVMISHHKDGEQIAKIIKLFGLDTVRGSTSRGASSALRAAFKVLEQNDDIVITPDGPRGPYHSISDGSIILAQKKELKIRILNYEANRFWKFKSWDKMILPKPFSKITYSLSEPLDILSLDKEKAKEFLMKQFDKISLADQFKE
protein production: failed

MSSKQHCVKLNDGHLIPALGFGTYKPKEVPKSKSLEAACLALDVGYRHVDTAYAYQVEEEIGQAIQSKIKAGVVKREDLFVTTKLWCTCFRPELVKPALEKSLKKLQLDYVDLYIMHYPVPMKSGDNDFPVNEQGKSLLDTVDFCDTWERLEECKDAGLVKSIGVSNFNHRQLERILNKPGLKYKPVCNQVECHLYLNQRKLLDYCESKDIVLVAYGALGTQRYKEWVDQNSPVLLNDPVLCDVAKKNKRSPALIALRYLIQRGIVPLAQSFKENEMRENLQVFGFQLSPEDMKTLDGLNKNFRYLPAEFLVDHPEYPFVEEY
protein production: not failed

MEYVNPEGLRLDGRRFNEMRQIVAEVGVVSKADGSAVFEMGNTKVIAAVYGPREIQNKSQQKKNDHAVVLCEYSMAQFSTGDRRRQKFDRRSTELSLVIRQTMEACILTELMPHSQIDIFLQVLQADGGTRSACINAATLALADAGIPMRDLAVSCSAGYLNSTPLLDLNYVEDSAGGADVTVGILPKLDKVSLLQMDAKLPMETFETVFALASEGCKAIAERIREVLQENTKQLEYRRAA
protein production: failed

MKTFNESNGTNANVLMVGLTLVQAAAAKGAVCLDGSVPGYHLCRGYGSGANNWIIQLQGGAWCDSIQNCQSRKGSGYGSSTLMEKELAFLGLLSNKAAENPDFYNWNKVKVRYCDGASFDGDSENKAAQLQYRGKRIFLAVMEDLMEKGMRQAKQALLSGCSSGGLSAILRCDDFNNLFPPTTTVKCMSDAGFFLDAVDVSGGHSLRRMYSGVVNTQGLQNTLPPTCTSHIKPFLCFFPQYIINQVKTPLFILNSGFDSWQIGNSLAPPSADKSGSWHNCSFSFRCTASQMHFLEGFKMSMLDALKTFSKFSKNGVLITSGWAHCQAERQDTWFPGYSGAGKAKGIAVAVGDWYFERTKQNSS
protein production: failed

MESYSQRQDHELQALEAIYGSDFQDLRPDARGRVREPPEINLVLYPQGLAGEEVYVQVELRVKCPPTYPDVVPEIDLKNAKGLSNESVNLLKSHLEELAKKQCGEVMIFELAHHVQSFLSEHNK
protein production: not failed

EKIGDRTYRVVSRLSLEDLKDHIEEELDLEIEFGDEIEDQVDTVGGLIAFELGRVPLPGATVETCGLKLTAEGAKNRRGRLRMHSAVVEVGE
protein production: not failed

DSVDLCIMEILKDILDLFHGGRVYIFEYDEYYRYQDCTYEVVAEGVLPEIDSLQRIPTDSLPWWRQQTLSGKPVILDSLDQLPKHAKAEYAILSRQNIKSLMITPLIAGEHVWGYMGIDLVKNYRNWNNEDFQWLSSLANIISICIELRKAKDEAVRERSFLRNLFRFMPMGYIRMTMVRDAAGLP
protein production: failed

MKLKTFLIVGCLGGLFTLSSCTAPTNVKDYSAYVNPFIGTGGHGHTFPGAVVPHGMIQPSPDTRIDGWDACSGYYYADSTINGFSHTHVSGTGCCDYGDVLLMPTVGKQQYRTTDPQSQRLAYASSFSHKNEIAEPGYYSVFLDTYQVKAEISSTKRGAIHRYTFPENTESGFIIDLDYSLQRQTNSEMEIEVISDTEICGHKKTTYWAFDQYINFYAKFSKPFSYTLVTDSITMDNGKRLPVCKALLHFNTSKDEQVLVKVGVSAVDIAGARKNVESEIPGWDFEKVRKDARTAWNEYLSKIDITTSDKEDKAIFYTALYHTGISPNLFTDADGRYLGMDLEVHQGDTLNPIYTVFSLWDTFRALHPLMTIIDPDLNNHFINSLIKKHQEGGIYPMWDLASNYTGTMIGYHAVPVIVDAYMKGYRNFDTKEAYKACLRAAEYDTTGIKCPDLVLPHLMPKAKYYKNAIGYIPCDRENESVAKALEYAYDDWCISIFAEAMSDFESKAKYERFAKAYEFYFDKSIRFMRGLDSKGEWRTPFNPRASTHRSDDYCEGTAWQWTWFVPHDVEGLVNLMGGEDAFVQKLDSLFSADSSLEGETTSSDISGLIGQYAHGNEPSHHVIHLYNYVNHPWRTQELVDSVYRSQYANSIEGLSGNEDCGQMSAWYILNSMGFYQVCPGKPVYSIGRPAFDKAVINLPEGKTFSIVVKNNGKKNKYIESVLLNGKALNIPFFNHQDIANGGTMEIKMTDHPTKWGVLSPALSSKEEE
protein production: failed

MNPADVTQLAPAVSTDVSLLSLFWHAHWVVKSIMLGLLGCSVWVWAIAIDKLLLFSRTKRAMDRFEQAFWSGESIDELYRALSAKPTHSMAACFVAAMREWKRSFESHSRSFAGLQMRIEKVMNVSIAREVERLERRLLVLATVGSAGPFVGLFGTVWGIMSSFQSIAASKNTSLAVVAPGIAEALFATAIGLIAAIPATIFYNKFTSEVNRQTQRLEGFADEFSAILSRQIDERT
protein production: failed

MDLSVVVPTLNARDALLDALDALAAHAPAAEVVVANGPSVDGTSGTVRDHDAVDTLLELSERNLNAARNAGIAATNGTVVAFIGQDTHIQPGWTNAVADAIADGADAVTGPVHRTVEGGVTTESVDEATVSGRDVTFFDGANVAITRRALRALDGFDEALQTGAARDAAHRLAGMDRRVAWAPNACVLRTDADDVIHRLPEDADSSARGLKYRALAYRLTKNYGATAAITARVLRHAVGDAASVGGAVLRGDADLSTWVGAGLAVLPGLWRGSQAGLSARVADRTTTRNPNGVSTRMDRVHARHD
protein production: failed

LAEKAGIGVWSYEPETQRIDWAPDALALMGVSPEDIATPELFLARLPENHRAEVQAAFVHAARTGEGGTLEYRLRANDGRWFTLRATYRTEARPGSGFALKGVSQNITDVARS
protein production: failed

MEKCSVGGLELTEQTPALLGNMAMATSLMDIGDSFGHPACPLVSRSRNSPVEDDDDDDDVVFIESIQPPSISAPAIADQRNFIFASSKNEKPQGNYSVIPPSSRDLASQKGNISETIVIDDEEDVETNGGAEKKSSFFIEWGLPGTKNKTNDLDFSTSSLSRSKTKTGVRPFNPGRMNVAGDLFQNGEFATHHSPEMHLQRRLMSFFQ
protein production: not failed

RKEDHARLRALNGLLYKALTDLLCTPEVSQELYDLNVELSKVSLTPDFSACRAYWKTTLSAEQNAHMEAVLQRSAAHMRHLLMSQQTLRNVPPIVFVQDKGNAALAELDQLLAVAD
protein production: not failed

MMVLRMKVEWYLDFVDLNYEPGRDELIVEYYFEPNGVSPEEAAGRIASESSIGTWTTLWKLPEMAKRSMAKVFYLEKHGEGYIAKIAYPLTLFEEGSLVQLFSAVAGNVFGMKALKNLRLLDFHPPYEYLRHFKGPQFGVQGIREFMGVKDRPLTATVPKPKMGWSVEEYAEIAYELWSGGIDLLKDDENFTSFPFNRFEERVRKLYRVRDRVEAETGETKEYLINITGPVNIMEKRAEMVANEGGQYVMIDIVVAGWSALQYMREVTEDLGLAIHAHRAMHAAFTRNPRHGITMLALAKAARMIGVDQIHTGTAVGKMAGNYEEIKRINDFLLSKWEHIRPVFPVASGGLHPGLMPELIRLFGKDLVIQAGGGVMGHPDGPRAGAKALRDAIDAAIEGVDLDEKAKSSPELKKSLREVGLSKAKVGVQH
protein production: not failed

MTIEPTQSPSSEPEVHSGEDFVHIDDPRPTGDISLSDSIVNVEKDELLDEAAEEEFRGSDSVFSGGDGGGADDDGGECSSEATKVELPEELAKSVVILTCESTADGGSCDVYLVGTAHVSKVILVLRFHLVLSLQRSCLGIELIFW
protein production: failed

MALHSSSDQYGSVAVTIHWLTAVLIVIALLTGFRAAAAEDVTTEAALLRVHLPAAALVLVLTVVRVVWWLGIDDKPEPIDGAPRSQQLIAGTVHLLFYVVVFGMIASGIGMMLASGAAPAIFSRDVPALPEFWHYRPRIPHGLGARLLVLLLIAHLAAALYHHLRGDRVFRRMWFGRNPKS
protein production: failed

VDKKAPQISFQARLLRDNVTIFLDFSGRGLFQRGYREHSGAAPLKENLAAALIIRSGWLNDTSKPLVDPMCGSGTILIEAVSMAAKQAPAINRQSWGFEAWLSHDNAVWQKQLTLAIDSSEENMSNLKVKVFGIDIDERVLRTAQQNARNAQLHQYIEFTCKNTNDMDNTFGQPGTILFNPPYGERIGELPELVENFVLFGQKLKMQFKDWRIAILTANVDLLSMLKLSSFKRYKFKNGPLDCQLALYNLDAKQG
protein production: failed

QRISLEIMTLQPRCEDVETAEGVALTVTGVAQVKIMTEKELLAVACEQFLGKNVQDIKNVVLQTLEGHLRSILGTLTVEQIYQDRDQFAKLVREVAAPDVGRMGIEILSFTIKDVYDKVDYLSSLGKTQT
protein production: not failed

MKEKVVLAYSGGLDTSVILKWLCEKGFDVIAYVANVGQKDDFVAIKEKALKTGASKVYVEDLRREFVTDYIFTALLGNAMYEGRYLLGTAIARPLIAKRQVEIAEKEGAQYVAHGATGKGNDQVRFELTYAALNPNLKVISPWKDPEFLAKFKGRTDLINYAMEKGIPIKVSKKRPYSEDENLMHISHEAGKLEDPAHIPDEDVFTWTVSPKDAPDEETLLEIHFENGIPVKVVNLKDGTEKTDPLELFEYLNEVGAKNGVGRLDMVENRFIGIKSRGVYETPGATILWIAHRDLEGITMDKEVMHLRDMLAPKFAELIYNGFWFSPEMEFLLAAFRKAQENVTGKVTVSIYKGNVMPVARYSPYSLYNPELSSMDVEGGFDATDSKGFINIHALRLKVHQLVKKGYQR
protein production: not failed
